Measurements as given in the supplement of paper PMC7877785.
± gives the uncertainty stated by the source.

Assay: self-splicing fitness, log relative to wild type (ln ratio); higher = more splicing; Tetrahymena group I intron in knt gene, E. coli kanamycin selection, DiMSum; sequences stand for … in CUCUCU…GGAGGGAAAAGUUAUCAGGCAUGCACCUGGUAGCUAGUCUUUAAACCAAUAGAUUGCAUCGGUUUAAAAGGCAAGACCGUCAAAUUGCGGGAAAGGGGUCAACAGCCGUUCAGUACCAAGUCUCAGGGGAAACUUUGAGAUGGCCUUGCAAAGGGUAUGGUAAUAAGCUGACGGACAUGGUCCUAACCACGCAGCCAAGUCCUAAGUCAACAGAUCUUCUGUUGAUAUGGAUGCAGUUCACAGACUAAAUGUCGGUCGGGGAAGAUGUAUUCUUCUCAUAAGAUAUAGUCGGACCUCUCCUUAAUGGGAGCUAGCGGAUGAAGUGAUGCAACACUGGAGCCGCUGGGAACUAAUUUGUAUGCGAAAGUAUAUUGAUUAGUUUUGGAGUACUCGUGGUCG
Outline: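 Fitness was computed with DiMSum as the error-weighted combination of replicate fold changes, kanamycin versus none, each normalised to wild type. The library randomised all eight intron nucleotides of the P1ex region, with the intron placed in the knt kanamycin-resistance gene on pET-22b(+) in E. coli BL21(DE3). Six replicate transformations were grown overnight at 37°C or 30°C on LB agar with or without 25 μg/mL kanamycin, plus 100 μg/mL carbenicillin, 50 μM IPTG and 0.2% rhamnose. Pooled colonies were amplicon-sequenced on an Illumina HiSeq 2500.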

Sequence: AAUAAGCAAUAUUACGUGGG
- self-splicing fitness (ln) (30 °C): -3 ± 0.13
- self-splicing fitness (ln) (37 °C): -2.75 ± 0.17

Sequence: GAGUAGCAAUAUUACGGUUA
- self-splicing fitness (ln) (30 °C): -0.885 ± 0.14
- self-splicing fitness (ln) (37 °C): -0.497 ± 0.099

Sequence: GAGAAGCAAUAUUACGUAGU
- self-splicing fitness (ln) (30 °C): -2.89 ± 0.094
- self-splicing fitness (ln) (37 °C): -1.39 ± 0.097

Sequence: ACAAAGCAAUAUUACGCCAG
- self-splicing fitness (ln) (30 °C): -1.94 ± 0.13
- self-splicing fitness (ln) (37 °C): -1.11 ± 0.16

Sequence: AACCAGCAAUAUUACGCGUC
- self-splicing fitness (ln) (30 °C): -2.08 ± 0.089
- self-splicing fitness (ln) (37 °C): -1.12 ± 0.095

Sequence: AUUAAGCAAUAUUACGGAUU
- self-splicing fitness (ln) (30 °C): -2.03 ± 0.12
- self-splicing fitness (ln) (37 °C): -0.791 ± 0.15

Sequence: GCAAAGCAAUAUUACGUGAG
- self-splicing fitness (ln) (30 °C): -1.11 ± 0.046
- self-splicing fitness (ln) (37 °C): -0.539 ± 0.067

Sequence: CGGCAGCAAUAUUACGCUUA
- self-splicing fitness (ln) (30 °C): -0.963 ± 0.071
- self-splicing fitness (ln) (37 °C): -0.184 ± 0.073

Sequence: CGCUAGCAAUAUUACGCGCU
- self-splicing fitness (ln) (30 °C): -3.85 ± 0.25
- self-splicing fitness (ln) (37 °C): -2.75 ± 0.22

Sequence: GGACAGCAAUAUUACGGAGA
- self-splicing fitness (ln) (30 °C): -2.98 ± 0.15
- self-splicing fitness (ln) (37 °C): -2.61 ± 0.2

Sequence: UCGUAGCAAUAUUACGAGUA
- self-splicing fitness (ln) (30 °C): -2.71 ± 0.18
- self-splicing fitness (ln) (37 °C): -1.21 ± 0.13

Sequence: AUGAAGCAAUAUUACGGAGG
- self-splicing fitness (ln) (30 °C): -2.82 ± 0.12
- self-splicing fitness (ln) (37 °C): -0.72 ± 0.12

Sequence: UGCCAGCAAUAUUACGACCG
- self-splicing fitness (ln) (30 °C): -0.712 ± 0.1
- self-splicing fitness (ln) (37 °C): 0.509 ± 0.14

Sequence: AGUUAGCAAUAUUACGUAUA
- self-splicing fitness (ln) (30 °C): -3.01 ± 0.19
- self-splicing fitness (ln) (37 °C): -1.57 ± 0.16

Sequence: UAGAAGCAAUAUUACGUGUC
- self-splicing fitness (ln) (30 °C): -3.27 ± 0.22
- self-splicing fitness (ln) (37 °C): -2.31 ± 0.23

Sequence: ACUCAGCAAUAUUACGGCCC
- self-splicing fitness (ln) (30 °C): -1.32 ± 0.15
- self-splicing fitness (ln) (37 °C): -0.343 ± 0.19

Sequence: AAAAAGCAAUAUUACGUCAC
- self-splicing fitness (ln) (30 °C): -4.29 ± 0.26
- self-splicing fitness (ln) (37 °C): -1.27 ± 0.16

Sequence: ACUUAGCAAUAUUACGAAGC
- self-splicing fitness (ln) (37 °C): -2.25 ± 0.5

Sequence: UGUAAGCAAUAUUACGUAGG
- self-splicing fitness (ln) (30 °C): -1.71 ± 0.15
- self-splicing fitness (ln) (37 °C): -0.712 ± 0.2

Sequence: AAUUAGCAAUAUUACGGUCC
- self-splicing fitness (ln) (30 °C): -0.652 ± 0.12
- self-splicing fitness (ln) (37 °C): 0.122 ± 0.15

Sequence: AGACAGCAAUAUUACGUUAG
- self-splicing fitness (ln) (30 °C): -3.69 ± 0.21
- self-splicing fitness (ln) (37 °C): -2.14 ± 0.15

Sequence: UACUAGCAAUAUUACGGAUA
- self-splicing fitness (ln) (30 °C): -1.72 ± 0.096
- self-splicing fitness (ln) (37 °C): -0.886 ± 0.092

Sequence: CACUAGCAAUAUUACGCUUC
- self-splicing fitness (ln) (30 °C): -3.74 ± 0.3
- self-splicing fitness (ln) (37 °C): -3.2 ± 0.4

Sequence: CGAUAGCAAUAUUACGAAGU
- self-splicing fitness (ln) (30 °C): -2.89 ± 0.18
- self-splicing fitness (ln) (37 °C): -2.58 ± 0.23

Sequence: CUUAAGCAAUAUUACGUCUA
- self-splicing fitness (ln) (30 °C): -3.67 ± 0.25
- self-splicing fitness (ln) (37 °C): -2.97 ± 0.23

Sequence: GACGAGCAAUAUUACGUGCC
- self-splicing fitness (ln) (30 °C): -1.56 ± 0.14
- self-splicing fitness (ln) (37 °C): -1.97 ± 0.26

Sequence: AGCCAGCAAUAUUACGAUCA
- self-splicing fitness (ln) (37 °C): -2.69 ± 0.32

Sequence: CGCCAGCAAUAUUACGACAG
- self-splicing fitness (ln) (30 °C): -0.00427 ± 0.052
- self-splicing fitness (ln) (37 °C): 0.18 ± 0.067

Sequence: ACUCAGCAAUAUUACGCGCU
- self-splicing fitness (ln) (30 °C): -1.41 ± 0.14
- self-splicing fitness (ln) (37 °C): -0.1 ± 0.16

Sequence: GGAAAGCAAUAUUACGCUUA
- self-splicing fitness (ln) (30 °C): -0.976 ± 0.17
- self-splicing fitness (ln) (37 °C): -0.998 ± 0.19

Sequence: AGCAAGCAAUAUUACGUGUC
- self-splicing fitness (ln) (30 °C): -3.85 ± 0.23
- self-splicing fitness (ln) (37 °C): -2.44 ± 0.17

Sequence: GAGUAGCAAUAUUACGAUAC
- self-splicing fitness (ln) (30 °C): -2.31 ± 0.21
- self-splicing fitness (ln) (37 °C): -2.92 ± 0.24

Sequence: UGUCAGCAAUAUUACGAUCC
- self-splicing fitness (ln) (30 °C): -1.48 ± 0.086
- self-splicing fitness (ln) (37 °C): -0.717 ± 0.089

Sequence: CGGUAGCAAUAUUACGGCAU
- self-splicing fitness (ln) (30 °C): -2.98 ± 0.32
- self-splicing fitness (ln) (37 °C): -2.11 ± 0.22

Sequence: CCCAAGCAAUAUUACGGAAA
- self-splicing fitness (ln) (30 °C): -2.22 ± 0.15
- self-splicing fitness (ln) (37 °C): -3.47 ± 0.3

Sequence: UACUAGCAAUAUUACGGAAA
- self-splicing fitness (ln) (30 °C): -2.64 ± 0.22
- self-splicing fitness (ln) (37 °C): -1.27 ± 0.18

Sequence: GCCCAGCAAUAUUACGUCCG
- self-splicing fitness (ln) (30 °C): -3.33 ± 0.26
- self-splicing fitness (ln) (37 °C): -2.83 ± 0.21

Sequence: CACAAGCAAUAUUACGUCAU
- self-splicing fitness (ln) (30 °C): -3.45 ± 0.14
- self-splicing fitness (ln) (37 °C): -2.78 ± 0.15

Sequence: CGGCAGCAAUAUUACGGUCU
- self-splicing fitness (ln) (30 °C): -0.384 ± 0.066
- self-splicing fitness (ln) (37 °C): 0.364 ± 0.087

Sequence: GGGCAGCAAUAUUACGUGGC
- self-splicing fitness (ln) (30 °C): -3.12 ± 0.25
- self-splicing fitness (ln) (37 °C): -2.21 ± 0.26

Sequence: UGCGAGCAAUAUUACGUGAA
- self-splicing fitness (ln) (37 °C): -2.32 ± 0.16

Sequence: CUUCAGCAAUAUUACGUCUC
- self-splicing fitness (ln) (30 °C): -3.17 ± 0.2
- self-splicing fitness (ln) (37 °C): -3.03 ± 0.2

Sequence: CGAAAGCAAUAUUACGAACU
- self-splicing fitness (ln) (30 °C): -1.25 ± 0.091
- self-splicing fitness (ln) (37 °C): 0.0371 ± 0.14

Sequence: GAACAGCAAUAUUACGGGAU
- self-splicing fitness (ln) (30 °C): -2.26 ± 0.084
- self-splicing fitness (ln) (37 °C): -1.05 ± 0.079

Sequence: UACGAGCAAUAUUACGUCAG
- self-splicing fitness (ln) (30 °C): -3.08 ± 0.34
- self-splicing fitness (ln) (37 °C): -3.01 ± 0.36

Sequence: CGGAAGCAAUAUUACGGAUG
- self-splicing fitness (ln) (30 °C): -2.02 ± 0.073
- self-splicing fitness (ln) (37 °C): -0.785 ± 0.086

Sequence: CCUGAGCAAUAUUACGCCGG
- self-splicing fitness (ln) (37 °C): -1.71 ± 0.39

Sequence: GCGUAGCAAUAUUACGAAGA
- self-splicing fitness (ln) (30 °C): -1.89 ± 0.21
- self-splicing fitness (ln) (37 °C): -1.51 ± 0.24

Sequence: ACACAGCAAUAUUACGUAGG
- self-splicing fitness (ln) (30 °C): -2.48 ± 0.087
- self-splicing fitness (ln) (37 °C): -1.64 ± 0.09
